First the molecules themselves.
B1: mAb3 (antibody, V domains shown)
VH: EVQLQQSGTVLARPGASVKMSCKASGYIFTSYWVHWVKQRPGQGLEWIGGFYPGNSDSRYNQKFKGKATLTAVTSASTAYMDLSSLTNEDSAVYFCTRRDSPQYWGQGTTLTVSS
VL: DVLMTQTPLSLPVSLGDQASISCRSSQSIVHSNGNTYLEWYLQKPGQSPKLLIYKVSNRFSGVPDRFSGSGSGTDFTLKISRLEAEDLGVYYCFQGSHVPFTFGGGTKLEIK
notes: Murine monoclonal antibody from a hybridoma, raised against hPG 1-14; also called 6B5B11C10
B2: mAb19 (antibody, V domains shown)
VH: DVQLQESGPGLVKPSQSLSLTCTVTGYSITSDYAWNWIRQFPGNKLEWMGYISFSGYTSYNPSLKSRISVTRDTSRNQFFLQLTSVTTEDTATYYCAREVNYGDSYHFDYWGQGTIVTVSS
VL: QLALTQSSSASFSLGASAKLTCTLSSQHRTYTIEWYQQQSLKPPKYVMEVKKDGSHSTGHGIPDRFSGSSSGADRYLSISNIQPEDEAIYICGVGDAIKGQSVFVFGGGTKVTVL
notes: Murine monoclonal antibody from a hybridoma, raised against hPG 1-14; also called 1B3B4F11
B3: mAb13 (antibody, V domains shown)
VH: EVQLVESGGGLVQPGGSLKLSCAASGFIFSSYGMSWVRQSPDRRLELVASINTFGDRTYYPDSVKGRFTISRDNAKNTLYLQMTSLKSEDTAIYYCARGTGTYWGQGTTLTVSS
VL: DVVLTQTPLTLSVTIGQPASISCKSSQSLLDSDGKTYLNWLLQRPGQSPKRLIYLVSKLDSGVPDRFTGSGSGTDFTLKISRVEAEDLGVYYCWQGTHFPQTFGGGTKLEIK
notes: Murine monoclonal antibody from a hybridoma, raised against hPG 55-80; also called 2C6C3C7
B4: mAb4 (antibody, V domains shown)
VH: QVQLQQSGAELMKPGASVKISCKATGYTFSSSWIEWLKQRPGHGLEWIGEFLPGSGSTDYNEKFKGKATFTADTSSDTAYMLLSSLTSEDSAVYYCATDGNYDWFAYWGQGTLVTVSA
VL: DLVMTQTPLSLPVSLGDQASISCRSSQSLVHSSGVTYLHWYLQKPGQSPKLLIYKVSNRFSGVPDRFSGSGSGTDFTLKISRVEAEDLGVYFCSQSTHVPPTFGSGTKLEIK
notes: Murine monoclonal antibody from a hybridoma, raised against hPG 1-14; also called 20D2C3G2
B5: mAb16 (antibody, V domains shown)
VH: QVQLQQSGAELVKPGASVKLSCKASGYTFTSYYMYWVKQRPGQGLEWIGEINPSNGGTNFNEKFKSKATLTVDKSSSTAYMQLSSLTSEDSAVYYCTRGGYYPFDYWGQGTTLTVSS
VL: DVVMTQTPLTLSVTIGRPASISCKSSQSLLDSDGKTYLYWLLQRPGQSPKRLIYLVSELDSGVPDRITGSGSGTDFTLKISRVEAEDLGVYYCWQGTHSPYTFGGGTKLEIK
notes: Murine monoclonal antibody from a hybridoma, raised against hPG 1-14; also called 1E9D9B6

The target in the assay is T1, human progastrin (human, UniProt P01350 22-101).
T1 construct: also called hPG; PG
T1 sequence: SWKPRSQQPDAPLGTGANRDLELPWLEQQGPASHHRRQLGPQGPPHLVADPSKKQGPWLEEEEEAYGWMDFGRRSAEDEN
In words: epitope mapping, method not described.
For the molecule B1, the binding result is reported as “binds”.
The result for B2 reads “binds”; that for B3, “binds”; that for B4, “binds”.
Consider B5, for which the binding result is “binds”.

Source of the values: patent publication US20210085784A1 (PROGASTRINE ET CANCERS S R L, published 2021).
